Results reported in the supplement of paper PMC10567573.

B1: MYBL2 (parent)
chain: IAKHLKGRLGKQCRERWHNHLNPE
B2: GFOD1 (parent)
chain: SDDFCTFQMVLEGGVCCTVTLNFN

Variants of: B1
Test: protein stability index of a GFP-peptide fusion (GPS, HEK-293T) (PSI 1-6); higher = more stable
Details: c terminus: a fixed tail appended
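Note: lentivirally expressed fusions sorted by FACS into six bins by GFP to DsRed ratio, PSI derived from sequencing read proportions per bin multiplied by bin number.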

Variant	protein stability index
IAKHLKGRLGKQCRERWHNHLNYE [P23Y]	1.33
IAKHLKGRLGKQCRERWHNHLNWE [P23W]	1.98
IAKHLKGRLGKQCRERWHNHLNPR [E24R]	2.75
IAKHLKGRLGKQCRERWHNHLNPL [E24L]	2.54
IAKHLKGRLGKQCRERWHNHLNPS [E24S]	1.81
IAKHLKGRLGKQCRERWHNHLNPT [E24T]	2.21
IAKHLKGRLGKQCRERWHNHLNPV [E24V]	3.05
IAKHLKGRLGKQCRERWHNHLNPH [E24H]	2
IAKHLKGRLGKQCRERWHNHLNPF [E24F]	2.82
IAKHLKGRLGKQCRERWHNHLNPI [E24I]	2.27
IAKHLKGRLGKQCRERWHNHLNPP [E24P]	2.12
IAKHLKGRLGKQCRERWHNHLNPG [E24G]	3
IAKHLKGRLGKQCRERWHNHLNPC [E24C]	1.41
IAKHLKGRLGKQCRERWHNHLNPA [E24A]	2.08
IAKHLKGRLGKQCRERWHNHLNPN [E24N]	2.35
IAKHLKGRLGKQCRERWHNHLNPD [E24D]	2.34
IAKHLKGRLGKQCRERWHNHLNPW [E24W]	1.79
IAKHLKGRLGKQCRERWHNHLNPK [E24K]	2.68
IAKHLKGRLGKQCRERWHNHLNPQ [E24Q]	1.4
IAKHLKGRLGKQCRERWHNHLNPM [E24M]	3.97

Variants of: B2
Test: as above
Details: c terminus: a fixed tail appended

Variant	protein stability index
SDIFCTFQMVLEGGVCCTVTLNFN [D3I]	1.7
SDNFCTFQMVLEGGVCCTVTLNFN [D3N]	2.68
SDLFCTFQMVLEGGVCCTVTLNFN [D3L]	2.58
SDKFCTFQMVLEGGVCCTVTLNFN [D3K]	3.76
SDYFCTFQMVLEGGVCCTVTLNFN [D3Y]	4
SDAFCTFQMVLEGGVCCTVTLNFN [D3A]	2.55
SDPFCTFQMVLEGGVCCTVTLNFN [D3P]	3.01
SDGFCTFQMVLEGGVCCTVTLNFN [D3G]	3.28
SDQFCTFQMVLEGGVCCTVTLNFN [D3Q]	2.69
SDVFCTFQMVLEGGVCCTVTLNFN [D3V]	3.3
SDDFMTFQMVLEGGVCCTVTLNFN [C5M]	3.18
SDDFHTFQMVLEGGVCCTVTLNFN [C5H]	2.97
SDDFLTFQMVLEGGVCCTVTLNFN [C5L]	3.9
SDDFQTFQMVLEGGVCCTVTLNFN [C5Q]	3.77
SDDFKTFQMVLEGGVCCTVTLNFN [C5K]	2.39
SDDFATFQMVLEGGVCCTVTLNFN [C5A]	1.58
SDDFRTFQMVLEGGVCCTVTLNFN [C5R]	3.13
SDDFDTFQMVLEGGVCCTVTLNFN [C5D]	2.59
SDDFVTFQMVLEGGVCCTVTLNFN [C5V]	3.65
SDDFFTFQMVLEGGVCCTVTLNFN [C5F]	2.08
SDDFITFQMVLEGGVCCTVTLNFN [C5I]	3.26
SYDFCTFQMVLEGGVCCTVTLNFN [D2Y]	3.72
SNDFCTFQMVLEGGVCCTVTLNFN [D2N]	3.57
SSDFCTFQMVLEGGVCCTVTLNFN [D2S]	3.14

Variant	protein stability index
SLDFCTFQMVLEGGVCCTVTLNFN [D2L]	3.05
SEDFCTFQMVLEGGVCCTVTLNFN [D2E]	3.11
SADFCTFQMVLEGGVCCTVTLNFN [D2A]	3.55
SQDFCTFQMVLEGGVCCTVTLNFN [D2Q]	3.58
SMDFCTFQMVLEGGVCCTVTLNFN [D2M]	1.27
STDFCTFQMVLEGGVCCTVTLNFN [D2T]	3.29
SHDFCTFQMVLEGGVCCTVTLNFN [D2H]	2.72
SGDFCTFQMVLEGGVCCTVTLNFN [D2G]	2.84
SCDFCTFQMVLEGGVCCTVTLNFN [D2C]	3.12
SDDFCTNQMVLEGGVCCTVTLNFN [F7N]	1.63
SDDFCTWQMVLEGGVCCTVTLNFN [F7W]	2.67
SDDFCTGQMVLEGGVCCTVTLNFN [F7G]	2.88
SDDFCTTQMVLEGGVCCTVTLNFN [F7T]	2.64
SDDFCTVQMVLEGGVCCTVTLNFN [F7V]	1.98
SDDFCTEQMVLEGGVCCTVTLNFN [F7E]	2.03
SDDFCTPQMVLEGGVCCTVTLNFN [F7P]	1.46
SDDFCTDQMVLEGGVCCTVTLNFN [F7D]	1.59
SDDFCTHQMVLEGGVCCTVTLNFN [F7H]	2.26
SDDFCTYQMVLEGGVCCTVTLNFN [F7Y]	2.77
SDDFCTKQMVLEGGVCCTVTLNFN [F7K]	1.93
SDDFCTFQIVLEGGVCCTVTLNFN [M9I]	3.34
SDDFCTFQHVLEGGVCCTVTLNFN [M9H]	2.74
SDDFCTFQDVLEGGVCCTVTLNFN [M9D]	2.18
SDDFCTFQEVLEGGVCCTVTLNFN [M9E]	1.42

Variant	protein stability index
SDDFCTFQPVLEGGVCCTVTLNFN [M9P]	1.27
SDDFCTFQKVLEGGVCCTVTLNFN [M9K]	1.8
SDDFCTFQVVLEGGVCCTVTLNFN [M9V]	2.59
SDDFCTFQTVLEGGVCCTVTLNFN [M9T]	3.09
SDDFCTFQAVLEGGVCCTVTLNFN [M9A]	2.43
SDDFCTFQFVLEGGVCCTVTLNFN [M9F]	2.5
SDDFCTFQCVLEGGVCCTVTLNFN [M9C]	2.77
SDDFCTFQYVLEGGVCCTVTLNFN [M9Y]	2.76
SDDFCTFQLVLEGGVCCTVTLNFN [M9L]	2.7
SDDFCTFQGVLEGGVCCTVTLNFN [M9G]	3.57
SDDFCTFQQVLEGGVCCTVTLNFN [M9Q]	1.55
SDDFCTFQWVLEGGVCCTVTLNFN [M9W]	2.28
SDDFCTFHMVLEGGVCCTVTLNFN [Q8H]	3.2
SDDFCTFKMVLEGGVCCTVTLNFN [Q8K]	3.33
SDDFCTFGMVLEGGVCCTVTLNFN [Q8G]	1.72
SDDFCTFMMVLEGGVCCTVTLNFN [Q8M]	3.81
SDDFCTFLMVLEGGVCCTVTLNFN [Q8L]	3.02
SDDFCTFVMVLEGGVCCTVTLNFN [Q8V]	3.25
SDDFCTFAMVLEGGVCCTVTLNFN [Q8A]	3.01
SDDFCTFEMVLEGGVCCTVTLNFN [Q8E]	2.71
SDDFCTFRMVLEGGVCCTVTLNFN [Q8R]	4.3
SDDFCTFNMVLEGGVCCTVTLNFN [Q8N]	2.13
SDDFCTFDMVLEGGVCCTVTLNFN [Q8D]	2.45
SDDFCTFCMVLEGGVCCTVTLNFN [Q8C]	2.98

Variant	protein stability index
SDDFCTFWMVLEGGVCCTVTLNFN [Q8W]	2.86
SDDFCTFYMVLEGGVCCTVTLNFN [Q8Y]	1.44
SDDFCTFIMVLEGGVCCTVTLNFN [Q8I]	3.21
SDDFCTFQMVYEGGVCCTVTLNFN [L11Y]	3.1
SDDFCTFQMVAEGGVCCTVTLNFN [L11A]	1.26
SDDFCTFQMVKEGGVCCTVTLNFN [L11K]	2.9
SDDFCTFQMVFEGGVCCTVTLNFN [L11F]	3.38
SDDFCTFQMVVEGGVCCTVTLNFN [L11V]	3.22
SDDFCTFQMVPEGGVCCTVTLNFN [L11P]	3.4
SDDFCTFQMVIEGGVCCTVTLNFN [L11I]	2.51
SDDFCTFQMVREGGVCCTVTLNFN [L11R]	3.43
SDDFCTFQMVHEGGVCCTVTLNFN [L11H]	3.05
SDDFCTFQMVDEGGVCCTVTLNFN [L11D]	3.52
SDDFCTFQMVLEQGVCCTVTLNFN [G13Q]	3.22
SDDFCTFQMVLEVGVCCTVTLNFN [G13V]	2.5
SDDFCTFQMVLERGVCCTVTLNFN [G13R]	3.71
SDDFCTFQMVLEIGVCCTVTLNFN [G13I]	2.35
SDDFCTFQMVLEEGVCCTVTLNFN [G13E]	2.48
SDDFCTFQMVLEKGVCCTVTLNFN [G13K]	3.14
SDDFCTFQMVLEDGVCCTVTLNFN [G13D]	3.2
SDDFCTFQMVLENGVCCTVTLNFN [G13N]	2.32
SDDFCTFQMVLELGVCCTVTLNFN [G13L]	4.34
SDDFCTFQMVLEFGVCCTVTLNFN [G13F]	2.3
SDDFCTFQMVLEMGVCCTVTLNFN [G13M]	2.94

Variant	protein stability index
SDDFCTFQMVLEAGVCCTVTLNFN [G13A]	3.65
SDDFCTFQMVLEPGVCCTVTLNFN [G13P]	2.92
ADDFCTFQMVLEGGVCCTVTLNFN [S1A]	3.07
QDDFCTFQMVLEGGVCCTVTLNFN [S1Q]	1.76
DDDFCTFQMVLEGGVCCTVTLNFN [S1D]	2.52
HDDFCTFQMVLEGGVCCTVTLNFN [S1H]	2.21
MDDFCTFQMVLEGGVCCTVTLNFN [S1M]	2.15
EDDFCTFQMVLEGGVCCTVTLNFN [S1E]	1.75
YDDFCTFQMVLEGGVCCTVTLNFN [S1Y]	3.3
TDDFCTFQMVLEGGVCCTVTLNFN [S1T]	3.26
NDDFCTFQMVLEGGVCCTVTLNFN [S1N]	2.42
RDDFCTFQMVLEGGVCCTVTLNFN [S1R]	2.98
KDDFCTFQMVLEGGVCCTVTLNFN [S1K]	3.01
PDDFCTFQMVLEGGVCCTVTLNFN [S1P]	2.84
SDDECTFQMVLEGGVCCTVTLNFN [F4E]	1.81
SDDDCTFQMVLEGGVCCTVTLNFN [F4D]	2.46
SDDNCTFQMVLEGGVCCTVTLNFN [F4N]	3.13
SDDTCTFQMVLEGGVCCTVTLNFN [F4T]	3.91
SDDMCTFQMVLEGGVCCTVTLNFN [F4M]	3.37
SDDKCTFQMVLEGGVCCTVTLNFN [F4K]	1.77
SDDQCTFQMVLEGGVCCTVTLNFN [F4Q]	2.56
SDDICTFQMVLEGGVCCTVTLNFN [F4I]	3.55
SDDVCTFQMVLEGGVCCTVTLNFN [F4V]	2.91
SDDSCTFQMVLEGGVCCTVTLNFN [F4S]	2.38

Variant	protein stability index
SDDRCTFQMVLEGGVCCTVTLNFN [F4R]	3.19
SDDCCTFQMVLEGGVCCTVTLNFN [F4C]	3.57
SDDLCTFQMVLEGGVCCTVTLNFN [F4L]	3.55
SDDHCTFQMVLEGGVCCTVTLNFN [F4H]	1.87
SDDYCTFQMVLEGGVCCTVTLNFN [F4Y]	2.63
SDDFCTFQMDLEGGVCCTVTLNFN [V10D]	3.42
SDDFCTFQMPLEGGVCCTVTLNFN [V10P]	2.35
SDDFCTFQMFLEGGVCCTVTLNFN [V10F]	4.27
SDDFCTFQMSLEGGVCCTVTLNFN [V10S]	2.04
SDDFCTFQMILEGGVCCTVTLNFN [V10I]	1
SDDFCTFQMQLEGGVCCTVTLNFN [V10Q]	1.29
SDDFCTFQMTLEGGVCCTVTLNFN [V10T]	2.36
SDDFCTFQMHLEGGVCCTVTLNFN [V10H]	2.2
SDDFCTFQMLLEGGVCCTVTLNFN [V10L]	2.58
SDDFCTFQMMLEGGVCCTVTLNFN [V10M]	1.84
SDDFCTFQMCLEGGVCCTVTLNFN [V10C]	3.77
SDDFCTFQMYLEGGVCCTVTLNFN [V10Y]	1.13
SDDFCTFQMALEGGVCCTVTLNFN [V10A]	2.91
SDDFCTFQMWLEGGVCCTVTLNFN [V10W]	3.71
SDDFCTFQMKLEGGVCCTVTLNFN [V10K]	2.56
SDDFCTFQMNLEGGVCCTVTLNFN [V10N]	1.83
SDDFCNFQMVLEGGVCCTVTLNFN [T6N]	2.54
SDDFCAFQMVLEGGVCCTVTLNFN [T6A]	2.79
SDDFCMFQMVLEGGVCCTVTLNFN [T6M]	3.02

Variant	protein stability index
SDDFCDFQMVLEGGVCCTVTLNFN [T6D]	3.22
SDDFCPFQMVLEGGVCCTVTLNFN [T6P]	1.65
SDDFCKFQMVLEGGVCCTVTLNFN [T6K]	2.04
SDDFCYFQMVLEGGVCCTVTLNFN [T6Y]	1.92
SDDFCHFQMVLEGGVCCTVTLNFN [T6H]	2.12
SDDFCWFQMVLEGGVCCTVTLNFN [T6W]	2.35
SDDFCEFQMVLEGGVCCTVTLNFN [T6E]	2.56
SDDFCFFQMVLEGGVCCTVTLNFN [T6F]	2.48
SDDFCGFQMVLEGGVCCTVTLNFN [T6G]	2.51
SDDFCIFQMVLEGGVCCTVTLNFN [T6I]	2.48
SDDFCTFQMVLCGGVCCTVTLNFN [E12C]	2.46
SDDFCTFQMVLWGGVCCTVTLNFN [E12W]	2.6
SDDFCTFQMVLNGGVCCTVTLNFN [E12N]	3.79
SDDFCTFQMVLFGGVCCTVTLNFN [E12F]	2.27
SDDFCTFQMVLTGGVCCTVTLNFN [E12T]	1.99
SDDFCTFQMVLQGGVCCTVTLNFN [E12Q]	2.74
SDDFCTFQMVLHGGVCCTVTLNFN [E12H]	2.37
SDDFCTFQMVLIGGVCCTVTLNFN [E12I]	2.56
SDDFCTFQMVLVGGVCCTVTLNFN [E12V]	3.03
SDDFCTFQMVLGGGVCCTVTLNFN [E12G]	3.33
SDDFCTFQMVLMGGVCCTVTLNFN [E12M]	3.38
SDDFCTFQMVLAGGVCCTVTLNFN [E12A]	3.59
SDDFCTFQMVLSGGVCCTVTLNFN [E12S]	3.99
SDDFCTFQMVLLGGVCCTVTLNFN [E12L]	4.46
